Results as given in the supplement of paper PMC9170038.

Tested on: K4 kissing-loop RNA reporter
Test: apparent KD of K4 kissing-loop reporter; higher = weaker reporter binding
Settings: Eterna round: R107
Experimental: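 RNA-MaP round R107: designed RNA switches with theophylline, tryptophan, arginine or FMN aptamers are transcribed on-chip within common flanks. They are titrated with a labelled K4 kissing-loop RNA reporter in RNA-MaP buffer (100 mM Tris pH 7.5, 80 mM KCl, 4 mM MgCl2), without ligand or with the indicated ligand. Median apparent KD per design.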

[1] = input ligand: theophylline 20 uM
[2] = input ligand: tryptophan 2.4 mM
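Further: bound reporter read as fluorescence of individual clusters on recovered sequencing chips by microscopy, with normalized cluster intensities fitted with a binding model.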

Row | Sequence | apparent KD of K4 kissing-loop reporter (input ligand: FMN 200 uM) [nM] | apparent KD of K4 kissing-loop reporter (input ligand: arginine 13.2 mM) [nM] | apparent KD of K4 kissing-loop reporter (input ligand: none) [nM] | apparent KD of K4 kissing-loop reporter [1] [nM] | apparent KD of K4 kissing-loop reporter [2] [nM]
1 | AACUCUCAGACACUUGAGUGAUGUUCAGGCCGAGGACCGGUACGGCCGCCACUCGGGUCUGAGAGAGGUUAUCAAAGAUAGCCAA [Omei KL Tryp A SS A v5] | 350 | 194 | 249 | 261 | 273
2 | UCGAAGGAUGGAAGGAGCGCUCGUCAGUCCUGCGAGUGAUGUUCGUGGGUAAAUAUUCGCGAGCAGGUAGGUCGCCAUCUCGAAC [Erbemaa] | 149 | 103 | 141 | 122 | 117
3 | ACCAAUUUACCGGCAGUAGUGAUGUUACUCCGAGGACCGGUACGGCCGCCACUCGCGAACGUAGGGUUUCUGACUCGAAGAGUCU | 191 | 127 | 171 | 149 | 171
4 | GCUAUCUGAGCCCAGUGAUGUUGAGUGCUGAAGGAUAUGCGAUAGAGCAGAAGGUCAAGAACAUUGUUCGAUUAUCAAAACAAGU [theeternabot_exclusion_KL_FMN_A_35] | 264 | 264 | 272 | 356 | 328
5 | AACAUUUUCAGAAGGAGCGUGAAUUAUUCAUAAUUAUAUUAUACGAGUGAUGUUCGUAUUUCACAGGUAGGUCGCUGAUAUAGUA [#02 K4 Arginine B Same State] | 94.5 | 127 | 104 | 121 | 93.1
6 | CUGCAACAUAACUUCUUCGUCCUAGAAGACUAGGAUAUCAGGAAACUGAGAAGGAGUCUCUGCAGUGAUGUUGCAGCUAGGACGA [[K]'-[F2]'-[F1]'-[F1]-[F2]-[K1]-[K2]-[F]''_Design3] | 195 | 159 | 148 | 197 | 173
7 | UGUCAUUGGUCUGAUACCAGUUAGCGCGAUAAGCGCAAAACUGGAGUGAUGUUCCCAAAUAACCCUUGGCAGCAGACCGAUGACU [MAT - Same State Theophlline B - Mod of Eli - D13] | 337 | 155 | 235 | 189 | 176
8 | CUUCGAUUAACGGAUACCAGUCACUUGGGAGCCACACACAAGUGAGUGAUGUUCACUUGUGACCCUUGGCAGCCGUUAGUCGAAG [#05 K4 Theophylline B Exclusion] | 106 | 85 | 99.4 | 157 | 97.9
9 | UGCAGUGAUGUUGCGAGUGGCAGAUACGAAGGAGCGUGGUGAGACACAGGUAGGUCGCGUAUUGAAAUUGCUGUCACUAAAAUGC [#7] | 448 | 469 | 505 | 483 | 362
10 | CCGUGGAGUGAUGUUCCACGUUCUACGGAUACCAGUUGUGCCAGCGGCCCUUGGCAGCCGCACCUUGCAGUGAUGUUGUGAGGCU [Same State Theophylline A Gf 6] | 238 | 210 | 225 | 229 | 198
11 | UGAUAGGACAGAAGGAGCGGGAGUGAUGUUCCCAAAAGGAUAAGGUGUCAAAAGACACCCUCCCAGGUAGGUCGCUGUCCUAUCU | 577 | 311 | 663 | 532 | 544
12 | UCCUGCAAUCGUCCACGAAAGUGGAUCGAUACCAGAGUCGAAAGACUCCCUUGGCAGCGAGUGAUGUUCGAAGCAGGUAAAUAAA | 487 | 387 | 466 | 548 | 391
13 | GGCAGUGAUGUUGCCAGUGGCAGAUGUGAAGGAGCGCGGUGAGACGCAGGUAGGUCGCACAUUGAAAUUGCUGUCACUAAAAUGC [#02 K4 Arginine A Exclusion] | 294 | 300 | 273 | 314 | 215
14 | UAUAUAGUGAUGUUAUAUGGGAAGGAGUUACGAGGACCGGUACGGCCGCCACUCGAAACGAGUGAGGAUUUGGGAGAUUGGGUUU [SSTryptA.S] | 333 | 211 | 206 | 208 | 232
15 | CCAGGACGAUGAGGAUGAUGAAUUACUGAAGGAGCGCAUAUGGUUGCAGGUAGGUCGCGGUGAACAAGUAUAGUGAUGUUAUACC [SSArgA.U] | 327 | 282 | 340 | 515 | 348
16 | GAUUAAUAAGAGGAUACCAGUACAAAUAAAGUACAUUAAUAGUAGAGUGAUGUUCUAAAGUACCCUUGGCAGCUUAGAGUAAGUU [ExTheophylB.A] | 119 | 207 | 174 | 226 | 94.4
17 | CUGUUUGGUUGAGAGGUUGGGCGGAAUGAUACCAGUAUAUAAGAAUACCCUUGGCAGCAUAAGAAAGAUAUAGUGAUGUUGUAUA [SSTheophA.K] | 526 | 297 | 464 | 536 | 417
18 | ACCUACCAUUAGUGAUGUUAAUGGACGGAAGGAGCGCAGAUAUCUGCAGGUAGGUCGCCGAAGGCUAGACAUUGUCUAGCCAUUA [AK1.1 SS Arginine A] | 227 | 178 | 197 | 163 | 183
19 | UGCUUUAUCAGAAGGAGCGCGUAAGUUAUACUAAUAAUCAGUGAUGUUGAUAUAUGAUCUUUGCAGGUAGGUCGCUGAUAUAGCU [KL-XARG-B4] | 452 | 419 | 532 | 467 | 472
20 | AGUUAUGUAUCAGGAUAUUAGUGAUGUUUGUUUUUGUUAGUGAUGUUGAUAUUUGUUUUAUGUAUUUAAGAAGGGAUUGAGAUGU [qsszmullin] | 68.2 | 20.5 | 39.1 | 29.4 | 52.4
21 | UGUCAUUGGUCGGCCGCCACUUCAAGGUCAAAGACCAAAGAGUGAUGUUCUAAGACGAAAGUCAGAAGGACCGGGACCGAUGACU [TrypBS 10 #SwitchBubble #K4Middle] | 168 | 67.7 | 128 | 223 | 1220
22 | UGACUGGACUGAAGGAGCGAGCGAGACAAAGUCUCGAAAAUUCAGUGAUGUUGAUAUAUAACUCAGGUAGGUCGCAGUCUAGUCU [ArgBS 5 #SwitchBubble #StaticStem] | 447 | 433 | 477 | 464 | 431

Row | Sequence | apparent KD of K4 kissing-loop reporter (input ligand: FMN 200 uM) [nM] | apparent KD of K4 kissing-loop reporter (input ligand: arginine 13.2 mM) [nM] | apparent KD of K4 kissing-loop reporter (input ligand: none) [nM] | apparent KD of K4 kissing-loop reporter [1] [nM] | apparent KD of K4 kissing-loop reporter [2] [nM]
23 | AAUUUAUUAUCUGAUACCAGACUUUUUCUUGUAUAUAAGUCAAGUGAUGUUUGACUUUUAGUCCCUUGGCAGCAGUAUUUUUUAA [JR_Nu_SSTheophyB_Sub027] | 165 | 149 | 168 | 123 | 155
24 | AAUAAUUUCAGAGGAUAUGCUUUAUUAUGAUUUUUAAAUAAUAAAUGCAGUGAUGUUGCUUAUUAUGCAGAAGGCUGAUUUAUAA [JR_SSFMNB_Sub015] | 143 | 727 | 747 | 721 | 565
25 | CAUACGCAUGGAGGAUAUGAGAUUUCUCAUAUUAUUUAAUAUUCUCAGUGAUGUUGAGAUAUAAACUCAGAAGGCCAUGUGUAUG [Ex FMN B 2] | 340 | 198 | 196 | 245 | 215
26 | AAAUAAAGCAGUCACCCAGUGAUGUUGGAAGGAGCGUGCGAAAGCACAGGUAGGUCGCCAAAAUAAAGUGGCUGCGGCAAAGCCA [#SwitchBubble 25 #K4Early] | 409 | 428 | 399 | 578 | 305
27 | AGUGAUGUAUGGCGGUGUGUCACUUAAAAUCAGGAUAUAUAAACAAAUAGAAGGGAUGGCGGAGUGAUGUUCCGCCGGCCGCCAU [FMN A Exl V2] | 173 | 147 | 157 | 165 | 159
28 | AUAGUGAGCUCGGCCGCCACUCCACUAUGUCAACAGUAGCUCUGUCAUAACCAGUGAUGUUGGUUGAGGACCGGGAGUUAAGACU [theeternabot_exclusion_KL_Trp_B_34] | 193 | 164 | 198 | 195 | 201
29 | AUGUGGAGCGACGUUUCGGGAUAUCGGGAAGGAGCGCUGAUAACGGCAGGUAGGUCGCCUGGUCCAGUGAUGUUGGGCAUGCAUU [Exclusion Arg A GF 24] | 150 | 135 | 270 | 185 | 155
30 | CAGCCCAAAUGGCGAGAAGUGUUCCUUAGUCGAGGACCGGUACGGCCGCCACUCGCUCUAAACAUUAGGAGUGAUGUUCCAUUAG | 168 | 258 | 215 | 335 | 90.6
31 | AGACUAUCGUCAAAGACGGUAGUCAAAAGUGAGGAUAUAGUGAUGUUUAGAAGGCACUAAGACUGUAUCGAAUAGAUACGGUCAA [FmnA 1 #K4BetweenAptamer #OpenEnded] | 2120 | 1320 | 2120 | 1250 | 1920
32 | UGUACCGAGUCAGGAUAUGGCGUCGAAAGACGAAUGCUAGUGAUGUUAGGGAUCUGCGAAAGCAGUCCAGAAGGGACUUGGUACU [FmnBS 26 G36] | 381 | 471 | 653 | 634 | 649
33 | AGUCCACUCUAAAGAGUGGACCUAAGGGAUACCAGUGAUGUUGGUCACCCUUGGCAGCCCGCUGUCAUCGAUAAAGAUGGCAGAA | 136 | 121 | 120 | 147 | 120
34 | GCCAGUGAUGUUGGCAUUUCGAGCCAUGAAGGAGCGCACGGAAGUGCAGGUAGGUCGCAUGGUACUUAGGAUAUUACCCUAAGUA [Isterare] | 206 | 177 | 212 | 200 | 161
35 | AAGUGAUGUUGUAGUGAUGUUGUGAUGUUGCAGGAUAUAUAGUGAUGUAGAAGGGUAUGUACAGUUUUUUUUUUUGAGUGAUGAU [vvcvmullin] | 82.3 | 40.1 | 74.2 | 51.4 | 70.3
36 | AAGCAGUCUCUUGUAACCAUCGAAGAUGGACGAGGACCGGUACGGCCGCCACUCGGAGUGAUGUUCCGAAGACUGCAAAAUAAAA [MatMod 15 - Jieux - Exclusion - Tryptophan A] | 713 | 712 | 828 | 1280 | 1350
37 | AGUGGACGUUACCGGAGUGAUGUUUCGGAUACCAGACACGAAAGUGUCCCUUGGCAGCCGUAGUGAUGUUACGGAGUUCACUAAA [KL-XTheo-A12 #KL 2] | 125 | 61.5 | 103 | 88.7 | 85.1
38 | AUUUAGACGAGUGAUGUUCGUGAUAUUACAGAGGAUAUGCUUAAAAGCAGAAGGCUGUAUUUAUAUUUGUUAUGUAAUUUUAAAA [JR_ExcFMNA_Sub005] | 79.9 | 95.4 | 78 | 95.5 | 62.7
39 | AAAGUAUACUGAAGGAGCGAGUAGUGGAAACAUAAACUCAUUGCGAGUGAUGUUCGCAGUACUCAGGUAGGUCGCGGUAAUCGUA [Exclusion Arginine B Gf 12] | 499 | 498 | 934 | 554 | 558
40 | AACGUUUUGAGAAGGAGCGCGAUAAGCAGUGAUGUUGCUAAAAUUCUAUUUCAAUUUAAUACGCAGGUAGGUCGCUCAAUACGUA [JR_SSArginiB_Sub020] | 143 | 136 | 138 | 156 | 118
41 | CUGGGUUGACGAAAAGUCAACAAAAGAGAAGGAGCGCACGAAAGUGCAGGUAGGUCGCUCAGUCCAGUGAUGUUGGAUCAUCCAG [#SwitchBubble 11 #K4Late] | 324 | 502 | 484 | 454 | 346
42 | GCAUCCUAGUCGGCCGCCACUGACAUGAGUGAUGUUCAUGUUCGUCAGUGAUGUUGACGUUGUUACAGGACCGGGACUAGGAUGC [KL-SSTryp-B8 Brourdwalk4 #Double KL] | 169 | 143 | 165 | 150 | 119
43 | UAGAUAAUGUAAGAUUAUGAUAAUUGGGAAGGAGCGCGGAAAUUCGCAGGUAGGUCGCCCUAUAAAGUAGUACGAGUGAUGUUCG [6.)] | 217 | 205 | 281 | 305 | 261
